Assay results as given in US20180094274A1 (BOARD OF TRUSTEES OF MICHIGAN STATE UNIVERSITY, published 2018).

B5: cYFP-BPM1 (other, Arabidopsis, UniProt Q8L765 1-407, looked up)
chain: MGTTRVCSEVSSGSSKSLSQSLTVSTSTTETVNGFHEFKICGYSLAKGVGVGKYVASDTFMVGGYSWAIYFYPDGKSPEDNSSYVSLFIALASEGADVRALFELTLVDQSGNGKHKVHSHFGRALDSGPYTLKYRGSMWGYKRFFRRSSLESSDYLKENSLLVRCRVGVVKSVTEGPRYYNIPVPVSNLGQQLGNLLESGKGCDVVFQVDGETFNAHKLVLATRSPVFNAQLFGPLGDRNTKCITIEDMEAPIFKVLLHFIYWDELPDMQELIGTDSTLASTLVAQHLLAAADRYALERLKAICESKLCEGVAINTVATTLALAEQHHCLQLKAVCLKFVALPENLKAVMQTDGFDYLKESCPSLLTELLQYVARLSEHSVIVSGHRKEIFADGCDASGRRVKPRLH
notes: BiFC construct transiently produced in N. benthamiana leaves; also called 35S:cYFP-BPM1; BTB/POZ and MATH domain-containing (BPM) 1; not shown: C-terminal half of YFP from the BiFC vector

How the values were obtained:
cYFP-BPM1 = molecular target: B5; assay: BiFC, transient expression in N. benthamiana leaves
Source text: (§1) Confocal microscopy and bimolecular fluorescence complementation (BiFC) assays used 35S:YFP-AtWRI1 (including truncated AtWRI1 variants and AtWRI1 site-directed mutants fused to yellow fluorescent protein (YFP)) were generated through GATEWAY system. For BiFC experiments, 35S:nYFP-AtWRI1 (including truncated AtWRI1 variants) and 35S:cYFP-BPM1 were similarly assembled. Constructs were transformed into A. tumefaciens (GV3101 strain). For BiFC experiments to test protein-protein interaction, A. tumefaciens harboring each nYFP and cYFP fusion construct was prepared (each culture was re-suspended to 1.2 OD₆₀₀ in MMA buffer) and adjusted to 0.4 OD₆₀₀ prior to injection into plant leaves. Healthy leaves of N. benthamiana plants were infiltrated by bacterial suspensions with a 1-mL blunt-end syringe. Plants were returned to growth chambers and YFP fluorescence signals were captured by a confocal microscope 2 to 3 d after bacterial infiltration. YFP fluorescence signal intensity was analyzed using ImageJ software.
(§2) A bimolecular fluorescence complementation (BiFC) assay was used to investigate the interaction between AtWRI1 and a BPM protein (BPM1). AtWRI1 and BPM1 were subcloned to BiFC vectors which generated nYFP-AtWRI1 and cYFP-BPM1 (half N-terminus of YFP and half C-terminus of YFP, respectively). […]

BPM1 (yeast two-hybrid) [1] = molecular target: T1, BPM1 (yeast two-hybrid) (Arabidopsis, UniProt Q8L765 1-407); assay: yeast two-hybrid
T1 construct: also called E3 ligase bridge protein BPM1; E3 ligase linker BPM protein; not shown: Y2H fusion partner
T1 sequence (looked up): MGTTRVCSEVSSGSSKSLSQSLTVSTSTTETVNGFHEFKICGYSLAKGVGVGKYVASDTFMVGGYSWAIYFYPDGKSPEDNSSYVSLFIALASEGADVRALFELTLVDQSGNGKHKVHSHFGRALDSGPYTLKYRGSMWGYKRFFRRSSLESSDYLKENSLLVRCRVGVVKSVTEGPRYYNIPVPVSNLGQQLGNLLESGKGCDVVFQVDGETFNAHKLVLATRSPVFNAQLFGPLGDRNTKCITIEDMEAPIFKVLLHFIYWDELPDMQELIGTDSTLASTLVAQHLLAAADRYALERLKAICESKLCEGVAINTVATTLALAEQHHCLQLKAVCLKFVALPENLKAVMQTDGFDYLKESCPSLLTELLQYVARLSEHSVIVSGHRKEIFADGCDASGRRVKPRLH

[2] = molecular target: T2, full length AtWRI1 (bait fusion, yeast two-hybrid) (Arabidopsis thaliana, UniProt Q6X5Y6 1-430); assay: yeast two-hybrid
T2 construct: Transcription factor expressed in yeast as bait fusion; also called Arabidopsis thaliana WRINKLED1; not shown: bait fusion partner of the Y2H vector
T2 sequence: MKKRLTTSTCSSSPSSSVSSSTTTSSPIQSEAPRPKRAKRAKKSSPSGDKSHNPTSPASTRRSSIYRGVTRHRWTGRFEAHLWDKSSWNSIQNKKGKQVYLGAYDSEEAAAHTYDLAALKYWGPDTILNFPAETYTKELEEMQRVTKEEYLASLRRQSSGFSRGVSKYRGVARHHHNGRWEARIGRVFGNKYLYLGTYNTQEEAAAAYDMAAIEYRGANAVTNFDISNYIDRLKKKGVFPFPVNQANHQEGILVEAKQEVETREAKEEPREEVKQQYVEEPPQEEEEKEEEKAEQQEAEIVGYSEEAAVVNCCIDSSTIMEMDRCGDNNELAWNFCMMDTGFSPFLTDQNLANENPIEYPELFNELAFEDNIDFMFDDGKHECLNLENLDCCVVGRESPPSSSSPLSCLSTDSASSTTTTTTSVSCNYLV

BPM1 (yeast two-hybrid) [3] = molecular target: T1, BPM1 (yeast two-hybrid); assay: yeast two-hybrid with truncated AtWRI1 variants
nYFP-AtWRI1 = molecular target: T3, nYFP-AtWRI1 (Arabidopsis thaliana, UniProt Q6X5Y6 1-430); assay: BiFC, transient expression in N. benthamiana leaves
T3 construct: BiFC construct transiently produced in N. benthamiana leaves; also called 35S:nYFP-AtWRI1; not shown: N-terminal half of YFP from the BiFC vector
T3 sequence: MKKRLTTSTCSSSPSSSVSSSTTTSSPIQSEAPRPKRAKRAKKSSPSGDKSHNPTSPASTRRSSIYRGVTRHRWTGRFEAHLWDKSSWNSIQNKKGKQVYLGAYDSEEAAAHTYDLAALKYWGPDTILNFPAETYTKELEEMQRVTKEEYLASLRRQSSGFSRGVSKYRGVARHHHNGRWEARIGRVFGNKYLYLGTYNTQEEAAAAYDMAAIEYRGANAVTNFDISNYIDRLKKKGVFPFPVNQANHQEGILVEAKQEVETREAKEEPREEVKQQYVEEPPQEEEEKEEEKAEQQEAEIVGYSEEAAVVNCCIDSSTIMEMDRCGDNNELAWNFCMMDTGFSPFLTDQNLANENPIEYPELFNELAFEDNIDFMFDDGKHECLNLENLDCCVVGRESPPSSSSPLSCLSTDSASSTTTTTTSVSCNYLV
Source text: as §1, §2

B1: nYFP-AtWRI1^1-366 (other)
chain: MKKRLTTSTCSSSPSSSVSSSTTTSSPIQSEAPRPKRAKRAKKSSPSGDKSHNPTSPASTRRSSIYRGVTRHRWTGRFEAHLWDKSSWNSIQNKKGKQVYLGAYDSEEAAAHTYDLAALKYWGPDTILNFPAETYTKELEEMQRVTKEEYLASLRRQSSGFSRGVSKYRGVARHHHNGRWEARIGRVFGNKYLYLGTYNTQEEAAAAYDMAAIEYRGANAVTNFDISNYIDRLKKKGVFPFPVNQANHQEGILVEAKQEVETREAKEEPREEVKQQYVEEPPQEEEEKEEEKAEQQEAEIVGYSEEAAVVNCCIDSSTIMEMDRCGDNNELAWNFCMMDTGFSPFLTDQNLANENPIEYPELFNEL
notes: also called AtWRI1^Δ367-430; not shown: N-terminal half of YFP from the BiFC vector
B1: binds (cYFP-BPM1).

B2: AtWRI1^1-77 (yeast two-hybrid) (other)
chain: MKKRLTTSTCSSSPSSSVSSSTTTSSPIQSEAPRPKRAKRAKKSSPSGDKSHNPTSPASTRRSSIYRGVTRHRWTGR
notes: Truncated AtWRI1 variant; not shown: Y2H fusion partner
B2: no binding (BPM1 (yeast two-hybrid) [1]).

B3: 14-3-3ν (yeast two-hybrid) (other, Arabidopsis, UniProt Q96300 1-265, looked up)
chain: MSSSREENVYLAKLAEQAERYEEMVEFMEKVAKTVDTDELTVEERNLLSVAYKNVIGARRASWRIISSIEQKEESRGNDDHVSIIKDYRGKIETELSKICDGILNLLDSHLVPTASLAESKVFYLKMKGDYHRYLAEFKTGAERKEAAESTLVAYKSAQDIALADLAPTHPIRLGLALNFSVFYYEILNSPDRACSLAKQAFDEAISELDTLGEESYKDSTLIMQLLRDNLTLWNSDINDEAGGDEIKEASKHEPEEGKPAETGQ
notes: also called 14-3-3 nu; not shown: Y2H fusion partner
B3: binds [2].

B4: AtWRI1^1-92 (yeast two-hybrid) (other)
chain: MKKRLTTSTCSSSPSSSVSSSTTTSSPIQSEAPRPKRAKRAKKSSPSGDKSHNPTSPASTRRSSIYRGVTRHRWTGRFEAHLWDKSSWNSIQ
notes: as for B2
B4: binds (BPM1 (yeast two-hybrid) [3]).

B5: binds (nYFP-AtWRI1).
